Data taken from PMC9364112, “A natural fusion of flavodiiron, rubredoxin, and rubredoxin oxidoreductase domains is a self-sufficient water-forming oxidase of Trichomonas vaginalis” (The Journal of Biological Chemistry, 2022).

B1: TvFDPF1 (Trichomonas vaginalis G3) (protein)
chain: MLKIQQLTEDIYWLGALDPTLAVFDIIMETKYGTTYNAYMIKTPAGAVLVETVKECFFEEYIEKVKSVIGDINNIKYLITNHTEPDHSGSIKKIIEIIPGLTVIGSKTALTYLEDIVNIPFRGHSAEDLKALKFGGKTFEFISCPFLHWPDSMYTWLPEEQALFTCDSFGAHYSPKKSILMSELPPEEEDGYQEALLYYYTAIFGPFKDFVIKGTDKILDLDIKIICLGHGPVLDARVQETIDTYRKWSEPALPHPGIEVVMVYASAYGYTTEMAEEIKNGILDKIPDASVKMYNVNIQNYGGMKADIMNSIATADGVLLGTNTINGDAVPPIWDVALSMNPIVHGGKIVTAFGSYGWSGEGVDNIINRFDKIRCKVVEPIKIKFRMSKKEHKQVREFGRRFADCLESGEVPDRAVPGRVVGAKDWSELNPTGAIVLWRCVICGEIYAGVTPPLVCPACGVGQDLFELYEAEEVTCSSFENLKFVVVGSGAAAVSAIDAIRARNTVASITMLTREKIMPYYRPIIVDALNSEISPENYYLKNEDWYTENNITVKLGTTVKSIDTARKSLTLSDGSTMQYDRLILATGSRPFVPPIGHEGLTGVYVIRTSNDVELLKETCKTAKKAVVIGGGVLGLENASAIKDRGLSVTVVECMPRLMARQLDPEASEILQGFVRDYGVDLRMGQCVVIKGDGKKVTGVQVGDEFISADFVVVNAGVRAESEVAAAAGIECSRGITVNNKMETSAQDVYAAGDCAYMENINQGLWAPALAMGKVAGANAAGDSKTFHFSIEPVNMIAMGTDLFAVGIPPDSPKGYNVISQRDEKEGTAIKLYFKDNRLVYAAGFKCQKQSGFLLKGVRNGHTLQHVLAELF
notes: full length, 871 residues, C-terminal His6 (pET30a, E. coli BL21 Star DE3); 272 kDa by gel filtration
B2: TvFDPF3 (holoTvFDPF3) (Trichomonas vaginalis G3) (protein)
chain: MLKIQQLTEDIYWLGVLDSDLAVFDIVMETKYGTTYNAYLIKTPEGAVLVETVKERFFDEYIDKVKTVIGDIKNIKYLITNHTEPDHSGSIKRMVELLPDVTVVGSKTALTYLEDIMNIPFKSQSAEDLKVLKFGGKTFEFISCPFLHWPDSMYTHLVEEKTLFTCDSFGAHYSPKKSILMSQLPPEEEEGYQDALLYYYTAIFGPFKEYVIKGTDKILNLDIKLICLGHGPVLDARIKETIDTYRKWSAPIPPHEGKEVVMVYASAYGYTTEMAEEIKTGIMEKCPDAKVKMFNVNIQNYGALKGEIMGAIATADGVLLGTNTINGDAVPPIWDVALSMNPIVHGGKVVSAFGSYGWSGEGVDNIIKRFDQIRCKVIDGMKIKFRMSKKEHEKVREFGNQFGNSLVTGVVPERAVPGKVVGAKDWSQLNPTGQIVLWRCVICGEIYAGVTPPAQCPACGVSEDLFELYEGEEIAVKSTEKLNFVVVGSGAAAVAACEAIRQRNSAASIQMITREKIMPYYRPIIVDALHGPIPDDQYWIKPEQWYKDNKIDVMLDTNVTSVDSKAKKVKLCCGKEVAYDKLILCTGSKPFVPPLGQEGLEGVLVIRTYLDVETLCKKCETAKSVVVIGGGVLGLENASNLEKKGLKVTVIECMPRLMSRQLDPEGSHFLEDAVRKYGINLKLGHAVGIKSDGKNVTGVQVGDEFVPADFIVINAGVRPECDVAKTGGVEIGRGISVNEKMETNIPDIYAAGDCAYLKNFNQGLWAPALAMGKVAGANAAGDDKTFSFAKEPVNMLAFNTDLFSIGCPPESEKGYNVIGQRDDKEGTLMRLYFQDNRLVYACCFKMQKISGALLKAAREGHSMQRVVAEVF
notes: full length, 871 residues, C-terminal His6 (pET30a, E. coli BL21 Star DE3), ~100 kDa on SDS-PAGE; FDP-core head-to-tail dimer; holo preparation with full FAD/FMN

Tests used:
purified protein [1] = substrate: NC(=O)C1=CN([C@@H]2O[C@H](COP(=O)(O)OP(=O)(O)OC[C@H]3O[C@@H](n4cnc5c(N)ncnc54)[C@H](O)[C@@H]3O)[C@@H](O)[C@H]2O)C=CC1; experiment: purified protein; type: biochemical, Trichomonas vaginalis; settings: O2 of air-saturated buffer, 50 mM Hepes-NaOH pH 7.5, 150 mM NaCl, 37 °C, kcat per monomer
purified protein [2] = substrate: NC(=O)C1=CN([C@@H]2O[C@H](COP(=O)(O)OP(=O)(O)OC[C@H]3O[C@@H](n4cnc5c(N)ncnc54)[C@H](OP(=O)(O)O)[C@@H]3O)[C@@H](O)[C@H]2O)C=CC1; experiment: purified protein; type: biochemical, Trichomonas vaginalis; settings: O2 of air-saturated buffer, 50 mM Hepes-NaOH pH 7.5, 150 mM NaCl, 37 °C, kcat per monomer
[3] = preparation with about 1% FMN, NAD(P)H tested 0.5-600 μM

Row | Protein | Km (purified protein [1]; preparation with about 1% FMN) | Vmax (purified protein [1]; preparation with about 1% FMN) | kcat (purified protein [1]; preparation with about 1% FMN) | kcat/Km (purified protein [1]; preparation with about 1% FMN) | Km (purified protein [2]; [3]) | Vmax (purified protein [2]; [3]) | kcat (purified protein [2]; [3]) | kcat/Km (purified protein [2]; [3]) | Km (purified protein [1]; holoTvFDPF3 (full FAD and FMN)) | Vmax (purified protein [1]; holoTvFDPF3 (full FAD and FMN)) | kcat (purified protein [1]; holoTvFDPF3 (full FAD and FMN)) | kcat/Km (purified protein [1]; holoTvFDPF3 (full FAD and FMN)) | Km (purified protein [2]; holoTvFDPF3 (full FAD and FMN)) | Vmax (purified protein [2]; holoTvFDPF3 (full FAD and FMN)) | kcat (purified protein [2]; holoTvFDPF3 (full FAD and FMN)) | kcat/Km (purified protein [2]; holoTvFDPF3 (full FAD and FMN))
1 | B1 | 2.9 ± 0.8 µM | 4.9 µmol/min/mg | 7.8 ± 1.9 s⁻¹ | 2.6e+06 ± 900000 M⁻¹ s⁻¹ | 1475 ± 486 µM | 4.9 µmol/min/mg | 7.8 ± 3.3 s⁻¹ | 5200 ± 2800 M⁻¹ s⁻¹ |  |  |  |  |  |  |  | 
2 | B2 |  |  |  |  |  |  |  |  | 56 ± 2 µM | 291 µmol/min/mg | 466 ± 42 s⁻¹ | 8.3e+06 ± 800000 M⁻¹ s⁻¹ | 427 ± 160 µM | 11 µmol/min/mg | 18 ± 6 s⁻¹ | 41000 ± 21000 M⁻¹ s⁻¹
